Laboratory results reported in patent EP2060581A1 (Chemotherapeutisches Forschungsinstitut Georg-Speyer-Haus, dated 2009).

Target: T1, ErbB2 receptor (UniProt P04626 23-1255)
T1 construct: Whole endogenous receptor from cell extracts, immunoprecipitated with an ErbB2 antibody
Experiment: co-immunoprecipitation from SK-BR3 membrane extracts with an ErbB2 antibody, Western blot with Flag antibody

B1: mt bTrx-All-7 (designed binder)
chain: MSDKIIHLTDDSFDTDVLKADGAILVDFWAEWSGPPLNFYRHGFLPNAVMASMLEVGPWFELLGPCGLAGHPLSSLRIGPSKMIAPILDEIADEYQGKLTVAKLNIDQNPGTAPKYGIRGIPTLLLFKNGEVAATKVGALSKGQLKEFLDANLA
notes: Purified recombinant protein; Largely monomeric; also called All-7 aptamer in mutated bTrx (mt); All-7 in the mutated scaffold; not shown: Flag-tag, one or two His-tags and a 9R protein transduction domain
  fold increase in binding against wt bTrx-All-7: 2.4 fold
